Source: publication PMC6051995

Target: vinculin (UniProt P18206)
Assay: FLAG IP, LC-MS/MS spectral counting
Conditions: reference: FLAG-EZH2 wild type; sites T367

binding against the reference: weaker
Substance: EZH2 (from UniProt Q15910) FLAG-EZH2 T367A
